Positions count from the first letter of the chain named. Numbers in names are those of the source.
B1: GST-tagged SARS-CoV-2 Nsp1 E55A/E57A/K58E (natural protein)
chain: MESLVPGFNEKTHVQLSLPVLQVRDVLVRGFGDSVEEVLSEARQHLKDGTCGLVAVAEGVLPQLEQPYVFIKRSDARTAPHGHVMVELVAELEGIQYGRSGETLGVLVPHVGEIPVAYRKVLLRKNGNKGAGGHSYGADLKSFDLGDELGTDPYEDFQENWNTKHSSGVTRELMRELNGG
B2: GST-tagged SARS-CoV-2 Nsp1 N-terminal domain (residues 1 to 129) (domain or fragment)
chain: MESLVPGFNEKTHVQLSLPVLQVRDVLVRGFGDSVEEVLSEARQHLKDGTCGLVEVEKGVLPQLEQPYVFIKRSDARTAPHGHVMVELVAELEGIQYGRSGETLGVLVPHVGEIPVAYRKVLLRKNGNK
B3: GST-tagged SARS-CoV-2 Nsp1 E91K/L92A/E93K/I95A (natural protein)
chain: B1 chain with A55E, A57E, E58K, E91K, L92A, E93K, I95A
B4: GST-tagged SARS-CoV-2 Nsp1 L27D/V28D (natural protein)
chain: B1 chain with L27D, V28D, A55E, A57E, E58K
notes: also called hydrophobic patch mutant

What follows are binders tested against T1, human NXF1(117-619)-NXT1 heterodimer, wild type (human, UniProt Q9UBU9 117-619; Q9UKK6 1-140). Settings: both partners purified.
T1 construct: human NXF1 (mRNA export receptor), residues 117-619; human NXT1, coexpressed with NXF1; also called NXF1-NXT1; mRNA export receptor; source: E. coli Rosetta, coexpressed, purified (details in SI Appendix)
T1 sequence (looked up) 1: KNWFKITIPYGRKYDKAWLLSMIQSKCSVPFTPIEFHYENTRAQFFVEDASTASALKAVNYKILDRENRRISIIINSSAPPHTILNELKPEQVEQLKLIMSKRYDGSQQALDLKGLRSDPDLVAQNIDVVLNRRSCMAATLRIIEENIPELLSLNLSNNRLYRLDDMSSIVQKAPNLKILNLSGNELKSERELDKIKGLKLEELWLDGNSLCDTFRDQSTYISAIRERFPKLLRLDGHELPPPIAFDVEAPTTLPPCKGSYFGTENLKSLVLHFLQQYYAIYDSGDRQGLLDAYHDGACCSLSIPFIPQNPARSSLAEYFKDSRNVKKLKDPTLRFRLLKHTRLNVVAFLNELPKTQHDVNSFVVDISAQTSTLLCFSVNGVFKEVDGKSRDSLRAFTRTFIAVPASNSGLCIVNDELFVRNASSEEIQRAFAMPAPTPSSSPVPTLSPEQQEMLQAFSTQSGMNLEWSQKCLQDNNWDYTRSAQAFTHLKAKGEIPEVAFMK
T1 sequence (looked up) 2: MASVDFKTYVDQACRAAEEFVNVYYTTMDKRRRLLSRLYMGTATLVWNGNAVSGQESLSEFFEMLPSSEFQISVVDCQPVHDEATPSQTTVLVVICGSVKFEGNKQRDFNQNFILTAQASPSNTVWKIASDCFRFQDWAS

Binder | binding result
B1 | binds
B2 | binds
B3 | binds
B4 | binds

Source: PMC11145185, “Inhibition of mRNA nuclear export promotes SARS-CoV-2 pathogenesis” (Proceedings of the National Academy of Sciences of the …, 2024)
